Assay results reported in patent US11541126B1, “Anti-ASGR1 antibody TLR8 agonist comprising conjugates and uses thereof” (Silverback Therapeutics, Inc., priority 2020, dated 2023).
“Also recorded” adds a separate entry of the source.

Legend:
HBV = experiment: AAV-HBV mouse model for chronic HBV infection: viral DNA, HBsAg, anti-HBsAg seroconversion; assay type: in vivo
Protocol: C57BL/6 mice were transduced with AAV8-HBV1.2 vector and sorted into treatment groups (n=10). Animals received 0.5 mg/dose of ASGR1-TLR8-S, 0.5 mg of unconjugated mASGR1 mAb or vehicle, sc QWx5 beginning d0 (black arrows). In FIG. 8A, dotted line is LLOQ for HBsAg ELISA. In FIG. 8B, average plasma anti-HBsAg IgG was determined by ELISA. p-values determined by T-test by comparison to vehicle group.
An in vivo mouse model for chronic HBV to examine the therapeutic effect of ASGR1-TLR8 agonists of the instant disclosure. […] Like TLR8 in humans, and in contrast to TLR7 in humans, TLR7 in mice is expressed in myeloid cells, like macrophages. Thus, for in vivo murine experiments, an anti-ASGR1-TLR7 agonist conjugate was generated as a surrogate for human anti-ASGR1-TLR8 agonist conjugates. In addition, the anti-human ASGR1 antibody 4F3 was “murinized” so as to bind to mouse ASGR1.
On day 0 animals were sorted into viral load-balanced treatment groups of 10. […] The experiment was ended on day 35. Weekly plasma samples were assessed for viral DNA and antigens, including samples from post-transduction (i.e., infection) but pre-treatment. HBV DNA in mouse plasma was isolated with QIAAMP® 96 DNA Blood Kit following the manual and quantified by qPCR. The standard curve DNA of 10^7 copies/μL was prepared by 60-fold dilution of 5 ng/μL pAAV2-HBV1.3 plasmid DNA, then serially diluted 10-fold with AE buffer from 10^7 to 10 copies/μL. A 2 μl volume from samples was added to standard qPCR assay mixtuRes. The PCR mixture and samples or plasmid DNA standard were added to 384-well optical reaction plates. PCR was run at 95° C. for 10 min for 1 cycle, at 95° C. for 15 sec, 60° C. for 1 min for 40 cycles. HBsAg plasma levels were determined by ELISA assay using HBsAg ELISA kit (Autobio) according to the manual.

[1] = Protocol: Throughout the course of this experiment, weekly body weights were obtained for each animal. In addition, the animals were monitored for an increase in ALT enzyme activity as a sign of liver damage. Plasma samples from d0, d7, d21, and d35 were assayed for levels of ALT with ALT Activity Assay Kit (Sigma Chemical Co., MAK052).
AAV-HBV transduced mice = experiment: Viral DNA and HBsAg antigen in mouse AAV-HBV model (replicated experiment); assay type: in vivo
[2] = defined from liver payload PK after SC doses
Text: Subcutaneous (SC) doses assessed are similar to those in FIGS. 6A and 6B. Liver payload PK was used as measure of conjugate uptake.
SC doses assessed are similar to those in FIGS. 6A and 6B. Liver payload PK was used as measure of conjugate uptake.

CD19^pos B cells = experiment: CD86 on CD19pos B cells after PBMC co-culture (flow cytometry); assay type: cell-based, human; conditions: co-culture of PBMC with ASGR1^pos cells, 10 nM, 24 and 48 hours
Protocol: FIG. 9 is a pair of graphs showing that ASGR1-TLR8 increases B cell expression of CD86, an activation marker indicative of increased antigen presentation and IgG secretion. CD86 levels on CD19^pos B cells were determined by flow cytometry after co-culture of PBMC with ASGR1^pos or ASGR1^neg cells in presence of test articles at 10 nM at 24 hours (left) and 48 hours (right). This ASGR1-TLR8 contains a mouse-human chimeric anti-ASGR1 antibody.
ASGR1-TLR8 conjugate activation increases B-cell expression of CD86, an activation marker indicating increased antigen presentation and IgG secretion. Abbreviations: monoclonal antibody (mAb), positive (pos), negative (neg), mean fluorescence intensity (MFI), hours (hrs). This ASGR1-TLR8 conjugate contains a humanized anti-ASGR1 antibody and has a DAR4.

[3] = system: B cells in human PBMC and ASGR1pos target cell co-culture; experiment: CD86 on CD19pos B cells in human PBMC and ASGR1pos target cell co-culture (FACS); assay type: cell-based; conditions: 10 nM, 24 or 48 hours; FIG. 9 and FIG. 11
Protocol: (§1) Normal human donor PBMCs were co-cultured with cell lines expressing ASGR1 (ASGR1^pos) or not (ASGR1^neg) in the presence of 10 nM of either anti-ASGR1-TLR8 conjugate, the unconjugated antibody, an anti-digoxigenin-TLR8 conjugate or no treatment. After 24 or 48 hours of incubation, cells were harvested and processed for FACS analysis (BD FACSCelesta™ Flow Cytometer) by standard procedures for washing and incubation with immune cell lineage antibodies, that included anti-CD19 antibody to identify B cells, and antibodies to detect levels of cell activation molecules, including anti-CD86 antibody.

[4] = system: NK cells, CD8+ T cells and CD4+ T cells in human PBMC and ASGR1pos target cell co-culture; experiment: IFNγ on NK cells, CD8+ and CD4+ T cells in human PBMC and ASGR1pos target cell co-culture (FACS); assay type: cell-based; conditions: 10 nM, 24 or 48 hours; FIG. 10
Protocol: as §1, with “included” for “included anti-CD19 antibody to identify B cells, and”, “anti-IFNγ” for “anti-CD86”

[5] = 0.5 mg subcutaneous once a week for 5 weeks

B1: ASGR1-TLR8-S: "The surrogate (i.e., murinized ASGR1 mAb-C (having 4F3 CDRs)-IgG2a conjugated to a TLR7 agonist Compound 4.1)" (conjugate)
heavy: EVKLVESGGGLVKPGGSLKLSCAASGFTFSSYAMSWVRQTPEKRLEWVSAISGSGGSTYYADSVKGRFTISRDNAKNTLYLQMSSLRSEDTAMYYCAKDFSSRRWYLEYWGQGTTLTVSSAKTTAPSVYPLAPVCGDTTGSSVTLGCLVKGYFPEPVTLTWNSGSLSSGVHTFPAVLQSDLYTLSSSVTVTSSTWPSQSITCNVAHPASSTKVDKKIEPRGPTIKPCPPCKCPAPNLLGGPSVFIFPPKIKDVLMISLSPIVTCVVVDVSEDDPDVQISWFVNNVEVHTAQTQTHREDYNSTLRVVSALPIQHQDWMSGKEFKCKVNNKDLPAPIERTISKPKGSVRAPQVYVLPPPEEEMTKKQVTLTCMVTDFMPEDIYVEWTNNGKTELNYKNTEPVLDSDGSYFMYSKLRVEKKNWVERNSYSCSVVHEGLHNHHTTKSFSRTPGK
light: QAVLTQEPALSVSLGQTVTLTCQGDSLRSYYASWYQQKPGQAPVLVIYGKNNRPSGVPARFSGSLIGDKAALTITGAQTEDEAIYYCNSLERIGYLSYVFGGGTKVTVLRADAAPTVSIFPPSSEQLTSGGASVVCFLNNFYPKDINVKWKIDGSERQNGVLNSWTDQDSKDSTYSMSSTLTLTKDEYERHNSYTCEATHKTSTSPIVKSFNRNEC
modifications: conjugated to TLR7 agonist Compound 4.1; Synthetic sequence mzASGR1 mAb-C Heavy Chain (VH-IgG2a); Synthetic sequence mzASGR1 mAb-C Light Chain (VL-kappa)
HBsAg antigen in plasma (HBV; [5]): significantly lowered; also recorded: reduces
Viral DNA in plasma (HBV; [5]): significantly lowered
Anti-HBsAg seroconversion (HBV; 0.5 mg/dose sc QWx5): drives seroconversion
Body weight [1, 5]: gained weight like control animals
ALT enzyme activity ([1]; plasma d0, d7, d21, d35): no increase
HBsAg antigen (AAV-HBV transduced mice; FIG. 8A): significantly lowered
viral DNA (AAV-HBV transduced mice; data not shown): significantly lowered

B2: ASGR1-S: a mouse conjugate surrogate for an ASGR1-TLR8 conjugate intended for therapeutic use in a human (conjugate)
heavy: B1 heavy
light: B1 light
modifications: conjugated to TLR agonist Compound 4.1; Synthetic sequence mzASGR1 mAb-C Heavy Chain (VH-IgG2a); Synthetic sequence mzASGR1 mAb-C Light Chain (VL-kappa)
notes: a mouse conjugate surrogate for an ASGR1-TLR8 conjugate intended for therapeutic use in a human
Seroconversion in the AAV-HBV model (HBV; at 5 mg/kg and 10 mg/kg): observed in some animals
Target payload liver concentration [2]: approximately 100 ng/g

B3: ASGR1-TLR8: This ASGR1-TLR8 contains a mouse-human chimeric anti-ASGR1 antibody (conjugate)
heavy: B1 heavy
light: B1 light
modifications: TLR8 agonist conjugated; Synthetic sequence mzASGR1 mAb-C Heavy Chain (VH-IgG2a); Synthetic sequence mzASGR1 mAb-C Light Chain (VL-kappa)
notes: This ASGR1-TLR8 contains a mouse-human chimeric anti-ASGR1 antibody
B cell expression of CD86 (CD19^pos B cells): increases
levels of CD86 on CD19pos cells (MFI) [3]: B cells were activated
levels of IFNγ on NK cells, CD8+ T cells and CD4+ T cells (MFI) [4]: drives an IFNγ response
